# Measured values as given in patent US9458465B2, “Compositions and methods to modulate cell membrane resealing” (RUTGERS, THE STATE UNIVERSITY OF NEW JERSEY, priority 2007, dated 2016).
# Experiments:
# [1] = tested on: C2C12 cells expressing GFP-MG53; test: Repair of acute membrane damage: translocation to microelectrode injury site; type: cell-based, murine; details: C2C12 cells; acute membrane damage
# Protocol: To follow the process of intracellular vesicle translocation associated with repair of acute membrane damage, GFP-MG53 fusion protein was expressed in C2C12 myoblast cells (FIG. 21a). […]
# Cell culture—The C2C12 murine myoblast cell line used for all studies was purchased from the American Type Culture Collection (Manassas, Va.). Cells were grown in a humidified environment at 37° C. and 5% CO2 in DMEM medium for C2C12 or Ham's F12 medium for CHO cells supplemented with 10% fetal bovine serum, 100 units/ml penicillin and 100 ug/ml streptomycin. In order to induce myotube differentiation, C2C12 myoblasts were grown to confluence and the medium was switched to DMEM containing 2% horse serum, penicillin (100 U/ml), streptomycin (100 μg/ml). For transient transfections, C2C12 myoblasts or CHO cells were plated at 70% confluence in glass-bottom dishes. After 24 hours, cells were transfected with plasmids described above using GeneJammer reagent (Stratagene). Cells were visualized by live cell confocal imaging at 24-48 hours after transfection or at times indicated for individual experiments. In some experiments, C2C12 myoblasts were allowed to differentiate into myotubes for the indicated time before observation.
# Live cell imaging—To monitor intracellular trafficking of GFP-MG53 either CHO or C2C12 cells were cultured in glass-bottom dishes (Bioptechs Inc.) and transfected with the plasmids described above. Fluorescence images (512×512) were captured at 3.18 s/frame using a BioRad 2100 Radiance laser scanning confocal microscope with a 63×1.3NA oil immersion objective.
# mg53−/− myotubes = test: Membrane repair in transfected mg53−/− myotubes; type: cell-based, mice
# Excerpt: The entry of FM4-64, a red-shifted variant of FM1-43, was used as an index of membrane repair capacity in mg53−/− myotubes transfected with GFP-MG53 and GFP-C242A. Following UV-bleaching of the green fluorescence, rapid translocation of GFP-MG53 took place at the injury site, whereas GFP-C242A remained static due to its defective oligomerization properties (FIG. 16E, 17A).
# Similar defects with GFP-C29L were also observed in C2C12 myotubes (FIG. 18e, middle).
# [2] = tested on: Human gastric adenocarcinoma (AGS) cells; test: GFP-MG53 translocation after microelectrode or saponin damage, AGS; type: cell-based; details: microelectrode or 0.005% saponin
# Excerpt: (§1) MG53 can translocate to membrane repair sites in gastric cells. Human gastric adenocarcinoma (AGS) cells were transfected with GFP-MG53 and then subjected to mechanical membrane damage by microelectrode needle penetration (top) or treatment with 0.005% saponin to permeabilize the membrane (bottom) (FIG. 45). Translocation of GFP-MG53 to the injury site (arrow) was monitored by live cell confocal microscopy.
# Mouse primary astrocytes = test: GFP-MG53 translocation after microelectrode or saponin damage, astrocytes; type: cell-based; details: microelectrode or 0.005% saponin
# Excerpt: as §1, with “neural” for “gastric”, “Mouse primary astrocytes” for “Human gastric adenocarcinoma (AGS) cells”, “46).” for “45).”
# [3] = tested on: Human C38 airway epithelial cells; test: GFP-MG53 translocation after microelectrode or saponin damage, C38; type: cell-based; details: microelectrode or 0.005% saponin
# Excerpt: as §1, with “airway epithelial” for “gastric”, “C38 airway epithelial” for “gastric adenocarcinoma (AGS)”, “47).” for “45).”
# [4] = tested on: Mouse leukaemic monocyte macrophage (RAW 264.7) cells; test: GFP-MG53 translocation after microelectrode or saponin damage, RAW 264.7; type: cell-based; details: microelectrode or 0.005% saponin
# Excerpt: as §1, with “immune” for “gastric”, “Mouse leukaemic monocyte macrophage (RAW 264.7)” for “Human gastric adenocarcinoma (AGS)”, “49).” for “45).”
# [5] = tested on: human embryonic palatal mesenchymal (HEPM) dental cells; test: GFP-MG53 translocation after microelectrode or saponin damage, HEPM; type: cell-based; details: microelectrode or saponin detergent
# Excerpt: (§2) MG53 can patch the plasma membrane in many different human cell types and prevent cell death. To test if exogenous MG53 can recapitulate membrane resealing function in non-muscle cell types, we used either adenovirus or liposome-based transfection methods to express GFP-MG53 in a number of different cell types. In all cell types tested, MG53 performed in a similar fashion as that seen in muscle cells. Here we illustrate these effects in immortalized human cell lines, including HEK293 (not shown) and human embryonic palatal mesenchymal (HEPM) dental cells (FIG. 43), as well as primary cultures of human keratinocytes (FIG. 42). […] The function of MG53 appears to be essential to allow membrane patching and survival of muscle cells following injury.
# [6] = tested on: primary cultures of human keratinocytes; test: GFP-MG53 translocation after microelectrode or saponin damage, keratinocytes; type: cell-based; details: microelectrode or saponin detergent
# Excerpt: as §2
molecule,measurement,setting,value
"WT: wild type MG53 as GFP fusion protein expressed in cells (protein, left off: large carriers, wild type MG53 as GFP fusion protein expressed in cells) MSAAPGLLRQELSCPLCLQLFDAPVTAECGHSFCRACLIRVAGEPAADGTVACPCCQAPTRPQALSTNLQLSRLVEGLAQVPQGHCEEHLDPLSIYCEQDRTLVCGVCASLGSHRGHRLLPAAEAQARLKTQLPQQKMQLQEACMRKEKTVAVLEHQLVEVEETVRQFRGAVGEQLGKMRMFLAALESSLDREAERVRGDAGVALRRELSSLNSYLEQLRQMEKVLEEVADKPQTEFLMKFCLVTSRLQKILSESPPPARLDIQLPVISDDFKFQVWKKMFRALMPALEELTFDPSSAHPSLVVSSSGRRVECSDQKAPPAGEDTRQFDKAVAVVAQQLLSQGEHYWEVEVGDKPRWALGVMAADASRRGRLHAVPSQGLWLLGLRDGKILEAHVEAKEPRALRTPERPPARIGLYLSFADGVLAFYDASNPDVLTPIFSFHERLPGPVYPIFDVCWHDKGKNAQPLLLVGPEQEQA",translocation to injury site and membrane repair function of GFP fusion protein,[1],rapid accumulation
same,translocation to the plasma membrane following injury,mg53−/− myotubes; primary cultured mg53−/− myotubes,could translocate to the plasma membrane following injury
same,entry of FM4-64 (membrane repair capacity),"mg53−/− myotubes; transfected mg53−/− myotubes, UV injury",Significantly less entry of FM4-64
same,translocation after cell membrane damage,[2],translocation of MG53 to the plasma membrane
same,translocation after cell membrane damage,Mouse primary astrocytes,translocation of MG53 to the plasma membrane
same,translocation after cell membrane damage,[3],translocation of MG53 to the plasma membrane
same,translocation after cell membrane damage,[4],translocation of MG53 to the plasma membrane
same,translocation after membrane damage,[5],effectively translocates to the plasma membrane
same,translocation after membrane damage,[6],effectively translocates to the plasma membrane
